Laboratory results reported in PMC9930398, “SlMYB1 regulates the accumulation of lycopene, fruit shape, and resistance to Botrytis cinerea in tomato”.

B1: SlPSY2pro probe (dsDNA)
DNA 1: TCGGTTATCGGTTATCGGTTA
DNA 2: TAACCGATAACCGATAACCGA
B2: SlPR5pro probe (dsDNA)
DNA 1: TCCGTTCTCCGTTCTCCGTTC
DNA 2: GAACGGAGAACGGAGAACGGA
B3: SlLCY1pro probe (dsDNA)
DNA 1: ACCGTTCACCGTTCACCGTTC
DNA 2: GAACGGTGAACGGTGAACGGT

These binders were tested against SlMYB1-GST (Solanum lycopersicum, UniProt A0A3Q7I0H7 1-380) (assay: EMSA; EMSA/Gel-Shift kit (Biyuntian/Beyotime) per instructions; buffer, salt, pH and temperature not stated). Conditions: protein: recombinant; tags: GST (pGEX-4T-1, N-terminal by vector); label: biotin; blunt.
Sequence of SlMYB1-GST (A0A3Q7I0H7 entry or part of it): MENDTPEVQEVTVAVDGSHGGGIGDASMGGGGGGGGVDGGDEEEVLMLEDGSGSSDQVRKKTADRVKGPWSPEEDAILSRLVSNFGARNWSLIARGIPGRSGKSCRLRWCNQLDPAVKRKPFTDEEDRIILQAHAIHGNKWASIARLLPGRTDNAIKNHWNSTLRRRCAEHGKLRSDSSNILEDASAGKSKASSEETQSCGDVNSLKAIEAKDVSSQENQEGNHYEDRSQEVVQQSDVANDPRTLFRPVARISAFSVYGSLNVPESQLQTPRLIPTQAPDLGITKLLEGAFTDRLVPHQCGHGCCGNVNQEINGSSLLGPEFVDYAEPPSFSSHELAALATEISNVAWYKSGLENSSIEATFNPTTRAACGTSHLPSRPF

Binding result, binds:
B1
B2
B3
